B1: Caspase-9 (Homo sapiens), P55211 (parent)
chain: MDEADRRLLRRCRLRLVEELQVDQLWDALLSRELFRPHMIEDIQRAGSGSRRDQARQLIIDLETRGSQALPLFISCLEDTGQDMLASFLRTNRQAAKLSKPTLENLTPVVLRPEIRKPEVLRPETPRPVDIGSGGFGDVGALESLRGNADLAYILSMEPCGHCLIINNVNFCRESGLRTRTGSNIDCEKLRRRFSSLHFMVEVKGDLTAKKMVLALLELAQQDHGALDCCVVVILSHGCQASHLQFPGAVYGTDGCPVSVEKIVNIFNGTSCPSLGGKPKLFFIQACGGEQKDHGFEVASTSPEDESPGSNPEPDATPFQEGLRTFDQLDAISSLPTPSDIFVSYSTFPGFVSWRDPKSGSWYVETLDDIFEQWAHSEDLQSLLLRVANAVSVKGIYKQMPGCFNFLRKKLFFKTS

Variants of: B1
Conditions: with apaf_human APAF1, O14727
apaf_human APAF1, O14727, sequence (O14727 whole entry): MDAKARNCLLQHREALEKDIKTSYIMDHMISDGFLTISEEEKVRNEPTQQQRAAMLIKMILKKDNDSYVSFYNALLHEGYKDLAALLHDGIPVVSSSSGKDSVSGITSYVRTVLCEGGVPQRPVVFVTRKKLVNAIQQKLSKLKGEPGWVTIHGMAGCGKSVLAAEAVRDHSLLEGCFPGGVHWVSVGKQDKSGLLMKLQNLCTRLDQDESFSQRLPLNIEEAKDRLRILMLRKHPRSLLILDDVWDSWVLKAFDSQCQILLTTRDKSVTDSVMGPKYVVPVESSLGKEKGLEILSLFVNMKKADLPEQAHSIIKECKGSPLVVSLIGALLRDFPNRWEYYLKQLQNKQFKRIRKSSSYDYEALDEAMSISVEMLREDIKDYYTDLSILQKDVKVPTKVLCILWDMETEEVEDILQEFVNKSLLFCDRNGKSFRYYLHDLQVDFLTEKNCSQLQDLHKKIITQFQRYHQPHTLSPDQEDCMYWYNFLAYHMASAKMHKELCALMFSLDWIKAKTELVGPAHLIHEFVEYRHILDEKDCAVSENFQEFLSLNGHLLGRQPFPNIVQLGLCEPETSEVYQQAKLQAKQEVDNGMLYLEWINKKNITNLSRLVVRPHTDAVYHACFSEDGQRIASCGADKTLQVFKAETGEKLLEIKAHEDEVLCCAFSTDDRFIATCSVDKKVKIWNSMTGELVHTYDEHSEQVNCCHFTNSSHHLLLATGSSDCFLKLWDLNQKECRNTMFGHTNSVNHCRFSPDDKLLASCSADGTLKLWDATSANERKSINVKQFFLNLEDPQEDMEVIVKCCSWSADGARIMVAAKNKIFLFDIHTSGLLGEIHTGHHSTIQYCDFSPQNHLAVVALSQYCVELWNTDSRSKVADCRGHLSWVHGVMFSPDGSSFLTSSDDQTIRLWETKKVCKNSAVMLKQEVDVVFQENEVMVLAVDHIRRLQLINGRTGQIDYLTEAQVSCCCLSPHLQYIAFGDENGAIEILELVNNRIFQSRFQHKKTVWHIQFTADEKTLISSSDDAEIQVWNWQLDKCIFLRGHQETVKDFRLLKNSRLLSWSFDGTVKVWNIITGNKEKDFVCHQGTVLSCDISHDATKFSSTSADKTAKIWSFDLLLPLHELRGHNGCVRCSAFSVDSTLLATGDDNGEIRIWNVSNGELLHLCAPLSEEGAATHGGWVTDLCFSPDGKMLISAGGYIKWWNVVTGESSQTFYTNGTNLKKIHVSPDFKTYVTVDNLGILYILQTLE

Row | Variant | effect of a mutation on the interaction
1 | R56A | disrupting interaction
